Target: transcriptional enhancer associated domain (TEAD) transcription factor (human (endogenous in A375)) (UniProt P28347)
Sequence of UniProt P28347 (P28347 whole entry, the tested form may be a part): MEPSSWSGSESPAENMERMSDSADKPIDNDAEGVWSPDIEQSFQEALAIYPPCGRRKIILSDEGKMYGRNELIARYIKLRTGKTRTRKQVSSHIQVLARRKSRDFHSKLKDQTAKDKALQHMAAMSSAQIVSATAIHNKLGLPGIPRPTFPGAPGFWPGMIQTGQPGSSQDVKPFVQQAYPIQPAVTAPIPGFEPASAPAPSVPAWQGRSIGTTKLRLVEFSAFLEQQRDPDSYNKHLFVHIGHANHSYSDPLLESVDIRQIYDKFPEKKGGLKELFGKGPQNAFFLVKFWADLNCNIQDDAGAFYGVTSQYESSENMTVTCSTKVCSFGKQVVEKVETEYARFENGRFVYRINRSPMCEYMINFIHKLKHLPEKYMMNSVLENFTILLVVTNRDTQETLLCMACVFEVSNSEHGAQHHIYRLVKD

“yes-associated protein (YAP) (from UniProt P46937 1-504) (natural protein)” gave a TEAD luciferase reporter (8xGTIIC) in A375 TEAD luciferase-stable melanoma cells, decrease of luciferase expression with the small molecule BY03 at 10 nM to 10 μM of 75% and a TEAD-dependent luciferase reporter (8xGTIIC) in HEK293T cells with ectopic expression of YAP-S127A, decrease of luciferase expression with the small molecule BY03 at 20 μM of 68%.

— publication PMC8391968
